The text below walks through data of US20250115680A1 (PROFOUNDBIO US, published 2025).

For orientation: EC50 means the midpoint of the concentration-response curve.

Experiment [1] addresses T1, human PTK7 on the surface of PTK7-expressing tumor cell lines (human, UniProt Q13308 31-1070).
T1 construct: whole, on cells
T1 sequence (looked up): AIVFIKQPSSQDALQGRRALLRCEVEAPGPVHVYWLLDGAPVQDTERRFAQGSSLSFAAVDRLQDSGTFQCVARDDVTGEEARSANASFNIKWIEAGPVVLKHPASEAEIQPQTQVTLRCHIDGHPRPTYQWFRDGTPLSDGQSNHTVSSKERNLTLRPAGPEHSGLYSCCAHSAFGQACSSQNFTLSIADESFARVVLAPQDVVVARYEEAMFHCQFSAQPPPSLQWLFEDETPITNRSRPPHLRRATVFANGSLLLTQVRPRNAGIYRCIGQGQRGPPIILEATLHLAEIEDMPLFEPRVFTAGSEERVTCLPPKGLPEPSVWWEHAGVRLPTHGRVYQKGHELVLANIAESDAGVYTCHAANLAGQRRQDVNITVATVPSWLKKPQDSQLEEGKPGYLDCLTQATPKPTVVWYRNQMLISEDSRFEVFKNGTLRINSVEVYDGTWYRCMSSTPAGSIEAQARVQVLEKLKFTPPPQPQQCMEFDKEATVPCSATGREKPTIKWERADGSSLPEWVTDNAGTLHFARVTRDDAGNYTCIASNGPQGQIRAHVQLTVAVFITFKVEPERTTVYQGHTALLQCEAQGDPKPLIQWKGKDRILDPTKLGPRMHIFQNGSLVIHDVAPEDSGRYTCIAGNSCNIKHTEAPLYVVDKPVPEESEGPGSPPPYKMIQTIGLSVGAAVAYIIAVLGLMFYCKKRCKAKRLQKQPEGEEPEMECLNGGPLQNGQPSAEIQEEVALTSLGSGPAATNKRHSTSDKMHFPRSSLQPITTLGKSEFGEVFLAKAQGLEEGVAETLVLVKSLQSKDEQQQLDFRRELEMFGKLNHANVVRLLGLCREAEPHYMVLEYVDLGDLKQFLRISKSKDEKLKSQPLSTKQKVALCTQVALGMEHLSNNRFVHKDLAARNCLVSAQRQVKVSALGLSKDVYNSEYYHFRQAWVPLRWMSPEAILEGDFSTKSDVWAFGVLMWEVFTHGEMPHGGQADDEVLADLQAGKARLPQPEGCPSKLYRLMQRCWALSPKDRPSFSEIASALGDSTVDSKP
The experiment can be described thus: flow cytometry on MDA-MB-231 cells, PE anti-human Fc detection, MFI(PE).

The target in experiment [2] is T2, human PTK-7 recombinant protein (human, UniProt Q13308 31-704, limits assumed).
T2 construct: also called human PTK7 protein
T2 sequence (looked up): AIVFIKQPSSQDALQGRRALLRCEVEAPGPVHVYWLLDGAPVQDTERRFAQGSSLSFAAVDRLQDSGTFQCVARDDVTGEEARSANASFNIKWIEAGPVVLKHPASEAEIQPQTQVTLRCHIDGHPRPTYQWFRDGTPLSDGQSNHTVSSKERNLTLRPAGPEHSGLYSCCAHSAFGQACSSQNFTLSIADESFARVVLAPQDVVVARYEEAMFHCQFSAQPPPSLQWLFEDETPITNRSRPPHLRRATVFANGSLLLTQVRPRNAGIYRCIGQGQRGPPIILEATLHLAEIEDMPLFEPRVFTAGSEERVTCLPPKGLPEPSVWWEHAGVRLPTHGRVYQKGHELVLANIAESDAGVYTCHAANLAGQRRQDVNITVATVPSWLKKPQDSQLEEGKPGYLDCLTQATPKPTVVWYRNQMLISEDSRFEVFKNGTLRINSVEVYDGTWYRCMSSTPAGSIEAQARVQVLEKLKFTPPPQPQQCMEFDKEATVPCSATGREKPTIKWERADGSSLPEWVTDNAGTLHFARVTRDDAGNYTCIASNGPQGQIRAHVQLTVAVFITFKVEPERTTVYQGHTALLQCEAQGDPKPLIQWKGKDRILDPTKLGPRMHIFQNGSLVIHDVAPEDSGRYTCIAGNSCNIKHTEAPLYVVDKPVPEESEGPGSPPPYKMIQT
The experiment can be described thus: ELISA, plate coated with 2 ug/mL human PTK-7 recombinant protein, HRP anti-human Fc detection, OD450. The procedure: (§1) Binding specificity property was tested by ELISA according to a standard protocol. Specifically, 96-well micro-plates were coated with 2 μg/mL human, cynomolgus, mouse, and rat PTK-7 recombinant protein in PBS 100 μL per well, incubated overnight at 4° C. Plates were washed twice by TBS+0.5% Tween20. 200 μL of blocking buffer (2% BSA in PBS) was added to each well and incubated at 37° C. for 2 hours. Plates were washed using the buffer mentioned above. Serially diluted antibodies were added to the ELISA plate with 100 μL per well and incubated for 1 hour at room temperature. Then plates were washed for 3 times. After washing, HRP conjugated anti-human Fc antibody solution (abcam, ab98624, diluted with blocking buffer) was added to the plate with 100 μl per well. The plates were incubated at room temperature for 1 hour and then washed for 3 times. Then TMB solution was added to plates with 100 μl per well, placed at room temperature for 5-15 mins, then the stop solution (2M H₂SO₄) was added with 50 μl per well. Finally, the result was measured by absorbance at A₄₅₀ and A₆₃₀.
In general terms: In an ELISA, binding on a coated surface is turned into a signal by an enzyme label.

In experiment [3] the target is T2, human PTK-7 recombinant protein. In words: ELISA, plate-coated human PTK7 protein, anti-human Fc-HRP detection. The procedure: as §1
Experiment [4] deals with T1, human PTK7 on the surface of …. In words: flow cytometry on MDA-MB-468 cells, PE anti-human Fc detection, MFI(PE). A general note: In flow cytometry, cells or beads pass a laser one at a time.
The target is the same in experiment [5]. In words: flow cytometry on PA-1 cells, PE anti-human Fc detection, MFI(PE).

B1: humanized antibody 13C4 (antibody, V domains shown)
VH: QVQLVESGGGLVKPGGSLRLSCAASGFAFSTYDMFWIRQAPGKGLEWVSTISSGGGYTYYPGSVKGRFTISRDNAKNSLYLQMNSLRAEDTAVYYCVRPLLRDSYFYFDVWGQGTMVTVSS
VL: EIVMTQSPATLSVSPGERATLSCRASSSVSSSYLHWYQQKPGQAPRLLIFRTSNLASGIPARFSGSGSGTEYTLTISSLQSEDAAVYYCQQYSGYPLTFGQGTKLEIK
notes: Only variable regions are tied to 13C4; It was detected with anti-human Fc
Consider B1, for which the EC50 in experiment [1] stood at 0.828 nM; in experiment [2], 0.0221 nM; in experiment [3], 0.022 nM; in experiment [4], 0.558 nM; in experiment [5], 0.808 nM.

B2: humanized antibody 2C5 (antibody, V domains shown)
VH: QVQLVQSGAEVKKPGASVKVSCKASGYTFTDYYINWVRQAPGQGLEWMGDINPYSGGPVYNQKFMARVTMTVDKSINTAYMELSRLRSDDTAVYYCARGDYYGSNYNYWGQGTLVTVSS
VL: EIVLTQSPATLSVSPGERATLSCRASQNIGTSIHWYQQKPGQAPRLLIKFASESISGIPARFSGSGSGTEFTLTISSLQSEDIAVYYCQQSNNWPYTFGQGTKLEIK
notes: Only variable regions are tied to 2C5; It was detected with anti-human Fc, so it has a human Fc
As for B2, the half-maximal effective concentration (EC50) is 0.506 nM in experiment [1]; 0.0267 nM in experiment [2]; 0.027 nM in experiment [3]; 0.543 nM in experiment [4]; 0.711 nM in experiment [5].

B3: humanized antibody 2C8 (antibody, V domains shown)
VH: QIQLVQSGAEVKKPGASVKVSCKASGYTFTTYGMSWVRQAPGQGLEWMGWINTHSGVPTYVDEFKGRVTMTLDTSTSTAYMELSSLRSEDTAVYYCARSPFDYGSRGAWFVYWGQGTTVTVSS
VL: DVVMTQSPDSLAVSLGERATINCRSSQSIVHNSGDTYLEWYQQKPGQPPKLLIYKVSNRFPGVPDRFSGSGSGTDFTLTISSLQAEDLAVYYCFQGSHVPWTFGGGTKVEIK
notes: Only variable regions are tied to 2C8 by name; It was detected with anti-human Fc
Regarding B3, the EC50 in experiment [1] amounted to 0.423 nM; in experiment [2] it was 0.0317 nM; in experiment [3] it was 0.032 nM; in experiment [4] it was 0.481 nM; in experiment [5], 0.562 nM.
